In patent US20110280888A1:

Legend:
[1] = target: carbohydrate containing epitope on CD43 and/or CEA as expressed on COLO 205 colorectal cancer cells; test: flow cytometry on Colo 205 cells, secondary antibody alone
[2] = target: carbohydrate containing epitope on CD43 and/or CEA as expressed on SU.86.86 pancreatic cancer cells; test: flow cytometry on SU.86.86 cells, secondary antibody alone at 1 ug/ml
[3] = target: carbohydrate containing epitope on CD43 and/or CEA as expressed on COLO 205 colorectal cancer cells; test: flow cytometry on Colo 205 cells, antibody at 1 ug/ml, R-PE secondary
[4] = target: carbohydrate containing epitope on CD43 and/or CEA as expressed on COLO 205 colorectal cancer cells; test: flow cytometry on Colo 205 cells, control antibody
[5] = target: carbohydrate containing epitope on CD43 and/or CEA as expressed on SU.86.86 pancreatic cancer cells; test: cell-based or functional assay
[6] = target: carbohydrate containing epitope on CD43 and/or CEA as expressed on COLO 205 colorectal cancer cells; test: flow cytometry on Colo 205 cells, antibody at 1 ug/ml, R-PE anti-mouse secondary
[7] = target: carbohydrate containing epitope on CD43 and/or CEA as expressed on SU.86.86 pancreatic cancer cells; test: flow cytometry on SU.86.86 cells, antibody at 1 ug/ml, R-PE anti-mouse secondary

With “R-PE-conjugated goat F(ab')2 anti-mouse IgG(H+L), Southern Biotech, Cat. No.1032-09 (antibody)” the background signal (MFI) [1] was 3 MFI and the MFI [2] was 6 MFI.

Molecule “R-PE-conjugated goat anti-human IgG, Southern Biotech, Cat. No.2040-09 (antibody)” has a background signal (MFI) [1] of 3 MFI.

Molecule hIgG1 (control antibody of Table 10) has a Median Fluorescence Intensity (MFI) [3] of 6 MFI.

In the case of human IgG (control antibody of FIG. 3), the background signal (MFI) [4] is reported as 5 MFI.

Work on mIgG3 (control antibody of Table 10) yielded a Median Fluorescence Intensity (MFI) [3] of 7 MFI.

With mouse IgG (control antibody of FIG. 3) the background signal (MFI) [4] was 4 MFI.

B1: murine 5F1 antibody (m5F1) (antibody, V domains shown)
VH: EVQLQQSGPELVKPGASVRMSCTASGYTFTSYVMHWIKQKPGQGLDWIGYINPYNGGTQYNEKFKGKATLTSDKSSSTAYMELSSLTSEDSAVYYCARRTFPYYFDYWGQGTTLTVSS
VL: DVLMTQTPLSLPVSLGDQASISCRSSQSILHSNGNTYLEWYLQKPGQSPKLLIYKVSNRFSGVPDRFSGSGSGTDFTLKISRVEAEDLGVYYCFQGSHAPLTFGAGTKLELK
B1 was tested, and the % of Annexin V and/or PI positive cells, SU.86.86 cells, 6 h, m5F1 at 2 ug/ml [5] was 60%, the % of Annexin V and/or PI positive cells, SU.86.86 cells, 6 h, m5F1 at 4 ug/ml [5] was 72% and the % of Annexin V and/or PI positive cells, SU.86.86 cells, 6 h, m5F1 at 8 ug/ml [5] was 78%. For the same molecule, the % of Annexin V and/or PI positive cells, SU.86.86 cells, 6 h, m5F1 at 16 ug/ml [5] was 89%, the % of Annexin V and/or PI positive cells, SU.86.86 cells, 6 h, m5F1 at 32 ug/ml [5] was 91% and the Median Fluorescence Intensity (MFI) [6] was 800 MFI. For the same molecule, the MFI [7] was 131 MFI.
